Two substances from patent US11136351B2 (priority 2016, dated 2021) can be followed below.

Assay type in all cases: cell-based
Assay [1] deals with T1, human α7 nAChR (Homo sapiens, UniProt P36544).
T1 construct: expressed in transfected cells; host or cells: Xenopus laevis oocytes
To be noted: 3 μM.

In assay [2] the target is T2, human α9α10 nAChR (Homo sapiens, UniProt Q9GZZ6+Q9UGM1).
T2 construct: expressed in transfected cells; host or cells: Xenopus laevis oocytes
To be noted: 3 μM.

Assay [3] deals with HVA calcium channels in rat DRG neurons. To be noted: for rat HVA Ca^2+ channel I/Icontrol ± SEM (n): 1 μM.

No end group written: not given here.

T2 sequence (Q9UGM1 26-479 limits assumed): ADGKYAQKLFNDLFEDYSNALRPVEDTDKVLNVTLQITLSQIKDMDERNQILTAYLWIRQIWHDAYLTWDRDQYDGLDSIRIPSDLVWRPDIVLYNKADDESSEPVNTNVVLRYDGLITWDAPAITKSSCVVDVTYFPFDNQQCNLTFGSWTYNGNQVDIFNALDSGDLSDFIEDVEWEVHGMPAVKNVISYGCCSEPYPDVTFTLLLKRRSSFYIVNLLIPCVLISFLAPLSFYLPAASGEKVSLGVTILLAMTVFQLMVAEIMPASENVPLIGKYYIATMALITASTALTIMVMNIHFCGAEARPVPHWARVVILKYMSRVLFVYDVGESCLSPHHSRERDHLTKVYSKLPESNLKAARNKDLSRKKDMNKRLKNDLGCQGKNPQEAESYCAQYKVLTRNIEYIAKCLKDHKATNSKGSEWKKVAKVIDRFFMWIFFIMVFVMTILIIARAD
T2 sequence (Q9GZZ6 25-450): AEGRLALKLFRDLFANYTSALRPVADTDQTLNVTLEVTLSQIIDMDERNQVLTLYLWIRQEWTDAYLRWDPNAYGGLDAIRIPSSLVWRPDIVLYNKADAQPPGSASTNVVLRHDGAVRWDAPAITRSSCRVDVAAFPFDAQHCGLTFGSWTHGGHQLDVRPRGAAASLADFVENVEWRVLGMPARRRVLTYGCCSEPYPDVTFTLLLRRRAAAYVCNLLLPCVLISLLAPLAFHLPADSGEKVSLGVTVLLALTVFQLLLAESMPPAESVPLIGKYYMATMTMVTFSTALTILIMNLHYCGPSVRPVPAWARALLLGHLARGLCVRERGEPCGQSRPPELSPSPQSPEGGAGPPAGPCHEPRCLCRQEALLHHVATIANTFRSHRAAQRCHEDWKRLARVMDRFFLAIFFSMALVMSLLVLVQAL

For “Pn1.2: native full length Pn1.2, SEQ ID No. 42: G C C S H P P C F L N N P D Y C (GCCSHPPCFLNNPDYC; not fully specified; ends and bridges not checked)”, the “human α7 nAChR I/Icontrol ± SEM (n)” value in assay [1] is reported as 0.006 ± 0.005 (5). Besides, in assay [2], the “human α9α10 nAChR I/Icontrol ± SEM (n)” value is on record as 0.012 ± 0.001 (4). Besides, in assay [3], the “inhibition of HVA calcium currents by globular, ribbon and beads isomers” value is “found to inhibit HVA calcium currents”; the “rat HVA Ca^2+ channel I/Icontrol ± SEM (n)” value is listed as 0.78 ± 0.03 (11).
The like results for “Pu1.2: native full length Pu1.2, SEQ ID No. 41: G G C C S Y P P C I A N N P L C (GGCCSYPPCIANNPLC; not fully specified; ends and bridges not checked)” were, in that order, 0.98 ± 0.03 (6), 1.01 ± 0.04 (4), “found to inhibit HVA calcium currents” and 0.73 ± 0.02 (12).
